Data on one substance can be found in paper PMC12386978.

The target of this assay is K151Q/R mutants. In words: split reporter (BiFC, NanoBiT); split-luciferase complementation; HEK293T cells co-transfected with NLuc-mCRY1 (wild-type or mutant) and a CLuc fusion of the partner; bioluminescence read 24 h after transfection in DMEM with 100 uM D-luciferin.

Chain of CLuc-BMAL1 (Q9WTL8 whole entry): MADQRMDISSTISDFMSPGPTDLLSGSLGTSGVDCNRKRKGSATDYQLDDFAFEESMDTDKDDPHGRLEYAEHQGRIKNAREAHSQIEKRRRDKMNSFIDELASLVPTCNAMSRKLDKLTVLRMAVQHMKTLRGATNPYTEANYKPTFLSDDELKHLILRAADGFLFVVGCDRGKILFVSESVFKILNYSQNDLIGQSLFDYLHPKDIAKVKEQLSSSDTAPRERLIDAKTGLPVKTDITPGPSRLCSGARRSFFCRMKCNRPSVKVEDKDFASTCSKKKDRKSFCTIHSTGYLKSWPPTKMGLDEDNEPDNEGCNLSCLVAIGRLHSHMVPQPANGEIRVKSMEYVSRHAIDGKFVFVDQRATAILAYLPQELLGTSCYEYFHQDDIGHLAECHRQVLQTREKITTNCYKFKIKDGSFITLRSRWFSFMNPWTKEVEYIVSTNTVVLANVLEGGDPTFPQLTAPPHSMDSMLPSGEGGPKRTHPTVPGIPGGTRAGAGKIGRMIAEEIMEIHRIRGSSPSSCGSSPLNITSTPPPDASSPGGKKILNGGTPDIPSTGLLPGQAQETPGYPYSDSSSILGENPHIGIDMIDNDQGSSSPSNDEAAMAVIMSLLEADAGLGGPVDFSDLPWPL

Consider “CLuc-BMAL1 (from UniProt Q9WTL8 1-632) (natural protein)”, for which the binding rate, percent of the wild type (% of the wild type) was 50 to 60.
